US20120164161A1 (AFFITECH RESEARCH, published 2012)

T1: human CC chemokine receptor 4 (CCR4) (human, UniProt P51679 1-360)
T1 sequence (looked up): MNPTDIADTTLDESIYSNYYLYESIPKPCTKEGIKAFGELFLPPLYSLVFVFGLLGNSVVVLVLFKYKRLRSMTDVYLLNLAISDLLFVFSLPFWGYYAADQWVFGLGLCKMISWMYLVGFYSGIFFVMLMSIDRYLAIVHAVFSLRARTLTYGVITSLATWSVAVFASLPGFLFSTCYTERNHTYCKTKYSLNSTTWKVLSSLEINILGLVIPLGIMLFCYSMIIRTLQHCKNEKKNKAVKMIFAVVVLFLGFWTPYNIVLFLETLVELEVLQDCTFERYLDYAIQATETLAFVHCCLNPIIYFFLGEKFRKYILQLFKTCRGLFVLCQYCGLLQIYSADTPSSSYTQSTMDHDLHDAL

T2: mouse CCR4 (mouse, UniProt P51680 1-360)
T2 construct: whole, on cells; also called murine CCR4
T2 sequence (looked up): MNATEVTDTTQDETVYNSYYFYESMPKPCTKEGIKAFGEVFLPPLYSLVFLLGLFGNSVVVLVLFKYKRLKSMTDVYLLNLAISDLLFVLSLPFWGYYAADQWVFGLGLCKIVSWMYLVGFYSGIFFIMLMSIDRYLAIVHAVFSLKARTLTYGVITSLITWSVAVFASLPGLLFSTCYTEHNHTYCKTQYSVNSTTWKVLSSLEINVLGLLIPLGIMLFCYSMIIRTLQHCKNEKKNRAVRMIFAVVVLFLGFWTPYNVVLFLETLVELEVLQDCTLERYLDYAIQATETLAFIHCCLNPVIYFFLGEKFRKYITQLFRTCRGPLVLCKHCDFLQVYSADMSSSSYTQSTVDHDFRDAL

T3: monkey (Macaca mulatta) CCR4 (monkey (Macaca mulatta), UniProt F7GUA3 1-360)
T3 construct: also called monkey CCR4
T3 sequence: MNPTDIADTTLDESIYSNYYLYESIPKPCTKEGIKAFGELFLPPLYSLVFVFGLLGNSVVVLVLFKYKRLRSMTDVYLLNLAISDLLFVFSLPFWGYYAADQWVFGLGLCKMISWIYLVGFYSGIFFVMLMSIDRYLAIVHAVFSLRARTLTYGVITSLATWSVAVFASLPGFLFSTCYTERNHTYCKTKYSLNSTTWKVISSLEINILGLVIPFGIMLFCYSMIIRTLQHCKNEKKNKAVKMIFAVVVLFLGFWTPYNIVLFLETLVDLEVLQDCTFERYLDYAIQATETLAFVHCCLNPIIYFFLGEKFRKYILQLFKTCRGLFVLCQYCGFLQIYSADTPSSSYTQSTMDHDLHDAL


Tests used:
[1] = target: T1, human CC chemokine receptor 4 (CCR4); experiment: cell-based or functional assay
[2] = target: T1, human CC chemokine receptor 4 (CCR4); experiment: cell-based or functional assay; remark: listed apart in the source
[3] = target: T1, human CC chemokine receptor 4 (CCR4); experiment: cell-based or functional assay; remark: listed apart in the source
[4] = target: T1, human CC chemokine receptor 4 (CCR4); experiment: cell-based or functional assay; remark: listed apart in the source
mouse CCR4 = target: T2, mouse CCR4; experiment: flow cytometry on transiently transfected HEK-293T/17 cells, IgG 1 ug/ml
Procedure: (§1) For transient transfection, Hek293T/17 cells were seeded as 2×10^6 cells in a T75 (NUNC) flask. 48 h after seeding, the cells were transfected with Fugene (ROCHE). 40 μl Fugene and 16 μg DNA are used per T75. The cells were used for assays 48 h after transfection.
(§2) Non-transfected (CCR4 negative) cells served as a negative control. The cells were cultivated further for 48 hours under regular conditions and harvested form flasks as described above. One times 10^5 cells per well were aliquoted into V-shaped 96-well plates (Greiner Bio-One, Frikenhausen, Germany). […] The samples were then washed twice by centrifugation and re-suspension in 150 μl FACS buffer. […] The samples were washed twice as described above and re-suspended in 250 μl FACS buffer followed by transfer into a U-shaped 96-well plate (Corning, Schiphol-Rijk, Netherlands) for flow cytometry on FACSCantoII (BD Biosciences, San Jose, Calif.).

[5] = target: T3, monkey (Macaca mulatta) CCR4; experiment: flow cytometry on transiently transfected HEK-293T/17 cells, IgG 1 ug/ml (data not shown)
Procedure: as §1, §2

[6] = target: T1, human CC chemokine receptor 4 (CCR4); experiment: flow cytometry competition; IgG titrated from 5 ug/ml against fixed Alexa647 MDC-SNAP (50 nM); competitor MDC-SNAP
[7] = target: T1, human CC chemokine receptor 4 (CCR4); experiment: flow cytometry competition; IgG titrated from 2.5 ug/ml against fixed biotinylated TARC; competitor biotinylated TARC
[8] = target: T1, human CC chemokine receptor 4 (CCR4); experiment: flow cytometry on CCRF-CEM cells; defucosylated IgG1, detected with RPE anti-human IgG; Median-PE [panel CCRF-CEM]
Procedure: (§3) All cells were re-suspended in PBS with 0.2% BSA and 0.09% NaN3 and finally aliquoted 1×10^5 cells per well into V-shaped 96-well plates (Greiner Bio-One, Frickenhausen, Germany). Cells were centrifuged at 400×g for 5 min and then incubated at 4° C. for 60 min with different IgG dilutions. For binding in presence of human serum, CCRF-CEM cells were incubated with different IgG-solutions at either 10% or 50% of human serum (Sigma Aldrich, St Louis, Mo., USA) at 37° C. for 60 min.

[9] = target: T1, human CC chemokine receptor 4 (CCR4); experiment: flow cytometry on Hut78 cells (CCR4-positive); defucosylated IgG1, detected with RPE anti-human IgG; Median-PE [panel Hut78]
Procedure: as §3

[10] = target: T1, human CC chemokine receptor 4 (CCR4); experiment: cell-based or functional assay; remark: listed apart in the source
[11] = target: T1, human CC chemokine receptor 4 (CCR4); experiment: flow cytometry on DT40 cells expressing human CCR4; scFv cross-linked with mouse anti-Myc antibody, detected with RPE anti-mouse IgG; MFI (PE-signal)
Procedure: For the flow cytometry experiments, the cells were harvested from the culture flasks, washed 2 times with PBS, re-suspended in PBS with 0.2% BSA and 0.09% NaN3 and finally aliquoted 1×10^5 cells per well into V-shaped 96-well plates (Greiner Bio-One, Frickenhausen, Germany). Cells were centrifuged at 400×g for 5 min and then incubated at 4° C. for 60 min with different scFv dilutions.
All scFv preparations were pre-incubated with a mouse anti-myc-antibody (9E10.2, Diatec, Oslo, Norway) to cross-link scFvs prior adding to the cells and diluted 3-fold, starting at a concentration of 10 μg/ml.
After washing with PBS with 0.2% BSA and 0.09% NaN3, the cells were stained with 1 μg/ml of RPE-conjugated goat anti-mouse IgG (AbD Serotec, Duesseldorf, Germany) for 30 minutes at 4° C. The stained cells were washed, re-suspended in 200 μl PBS with 0.2% BSA and 0.09% NaN3 and transferred to a U-shaped 96-well plate (Corning, Schiphol-Rijk, The Netherlands) for acquisition on EasyCyte flow cytometer (Guava Technologies, Hayward, Calif., USA).

| Binder | Inhibition of MDC (Ca-Flux), Blockage of signaling in % at 10 µg/ml IgG [1] | Inhibition of TARC (Ca-Flux), IC50 [1] | Inhibition of CCL17/TARC-induced migration of CCRF-CEM cells, IC50 [2] | Inhibition of CCL22/MDC-induced migration, Blockage of migration in % (IgG 10 µg/ml) [2] | IC50 of inhibition of CCL17/TARC-induced invasion of 786-O cells, CCL17/TARC 25 nM [3] | IC50 of inhibition of CCL17/TARC-induced invasion of 786-O cells, CCL17/TARC 125 nM [3] | ADCC on CCRF-CEM cells with human PBMCs, EC50 [4] | ADCC on CCRF-CEM cells, Max. Killing (%; nM IgG) [4] | ADCC on L-428 cells with human PBMCs, EC50 [4] | ADCC on L-428 cells, Max. Killing (%; nM IgG) [4] | binding result (mouse CCR4) | binding result [5] | IC50 [6] | IC50 [7] | EC50 (read off the curve) [8] | EC50 (read off the curve) [9] | IC50 of inhibition of TARC-mediated Ca-Flux in CCRF-CEM cells [10] | EC50 (read off the curve) [11] |
| --- | --- | --- | --- | --- | --- | --- | --- | --- | --- | --- | --- | --- | --- | --- | --- | --- | --- | --- |
| IgG form of antibody 503 (defucosylated IgG1) (antibody, V domains shown, Human IgG1, lambda light chain; produced in presence of Kifunensine (defucosylated); Biotinylated via cysteines for the human serum experiment) VH: QVQLVQSGAEVKKPGSSVKVSCKASEGTFSSYAMSWVRQAPGQGLEWMGGIIPIFGTVNYAQKFQGRVTMTRDTSTSTVYMELSSLRSDDTAVYYCARRRGAKFDYWGQGTLVTVSS VL: SYVLTQPPSASGTPGQSVTISCSGSTSNIGSHYVVWYQQLPGTAPRLLIYRNHQRPSGVPDRLSGSKSGTSASLAIGGLRSEDEADYYCAVWDDTLSGWVFGGGTKLTVLG | 64% | 0.013 nM | 0.039 nM | 39% | 0.12 µg/mL | 1.33 µg/mL | 0.0053 nM | 108 % (at 1.4 nM IgG) | 0.233 nM | 93 % (at 7 nM IgG) | binds | binds | 0.11 nM | 0.87 nM | ~0.02 nM | ~0.05 nM | – | – |
| 603 scFv (scFv, not shown: small tags and cut ends, Expressed in TG1 bacteria; also called scFv 603; antibody 603 (single chain form)) scFv: QVQLVQSGAEVKKPGSSVKVSCKASGGTFSSYAMSWVRQAPGQGLEWMGGIIPIFGTVNYAQKFQGRVTMTRDTSTSTVYMELSSLRSDDTAVYYCARRRGAKFDYWGQGTLVTVSSKLSGSASAPKLEEGEFSEARVSYVLTQPPSASGTPGQSVTISCSGSTSNIGSHYVVWYQQLPGTAPRLLIYRNHQRPSGVPDRLSGSKSGTSASLAIGGLRSEDEADYYCAVWDDTLSGWVFGGGTKLTVL | – | – | – | – | – | – | – | – | – | – | – | – | – | – | – | – | 0.002 nM | ~0.3 µg/mL |
